This note sets out measurements from patent US20260152567A1 (CSPC MEGALITH BIOPHARMACEUTICAL, published 2026).

Assay [1] addresses T1, human CD73 on the cell surface (MDA-MB-231 and SKOV3 tumor cells) (human, UniProt P21589 27-549).
T1 sequence (looked up): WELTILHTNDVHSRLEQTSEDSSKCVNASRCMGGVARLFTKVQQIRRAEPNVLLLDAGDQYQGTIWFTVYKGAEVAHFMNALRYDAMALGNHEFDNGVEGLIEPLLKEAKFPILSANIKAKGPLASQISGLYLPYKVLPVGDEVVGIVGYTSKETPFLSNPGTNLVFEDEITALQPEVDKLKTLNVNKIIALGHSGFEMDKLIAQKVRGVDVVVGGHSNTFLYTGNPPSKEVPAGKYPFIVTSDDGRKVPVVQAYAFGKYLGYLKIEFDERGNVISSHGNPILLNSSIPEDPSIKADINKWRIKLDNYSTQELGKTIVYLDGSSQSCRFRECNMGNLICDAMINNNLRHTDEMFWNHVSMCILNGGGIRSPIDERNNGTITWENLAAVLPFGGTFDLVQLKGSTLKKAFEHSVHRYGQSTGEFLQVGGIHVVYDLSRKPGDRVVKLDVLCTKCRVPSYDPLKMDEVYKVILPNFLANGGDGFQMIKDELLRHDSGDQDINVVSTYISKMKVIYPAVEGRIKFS
Briefly: cell-based or functional assay.

For assay [2], the target named is T2, cynomolgus monkey full-length CD73 on CHO-K1 cells (cynomolgus monkey, UniProt A0A2K5V5U7 27-549).
T2 construct: whole, on cells; also called monkey CD73 protein expressed on cells; cynomolgus monkey CD73 on cell surface
T2 sequence: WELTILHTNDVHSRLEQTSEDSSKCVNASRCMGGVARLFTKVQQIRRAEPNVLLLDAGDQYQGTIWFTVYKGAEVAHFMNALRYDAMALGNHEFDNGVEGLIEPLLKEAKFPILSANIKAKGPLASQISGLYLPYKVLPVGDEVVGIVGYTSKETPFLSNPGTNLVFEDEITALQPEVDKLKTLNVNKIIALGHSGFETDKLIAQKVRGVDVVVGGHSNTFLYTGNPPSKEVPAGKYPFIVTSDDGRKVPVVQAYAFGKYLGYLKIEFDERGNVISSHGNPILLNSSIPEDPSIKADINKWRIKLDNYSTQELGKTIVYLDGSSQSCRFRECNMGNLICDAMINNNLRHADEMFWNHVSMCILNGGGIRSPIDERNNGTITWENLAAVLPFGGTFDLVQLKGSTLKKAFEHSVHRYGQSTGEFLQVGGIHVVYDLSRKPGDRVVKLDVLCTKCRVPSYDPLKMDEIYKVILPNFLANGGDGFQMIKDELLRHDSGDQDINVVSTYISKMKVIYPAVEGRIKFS
Briefly: flow cytometry on CHO-K1 cells expressing monkey full-length CD73. Here is the method:
In order to characterize the ability of the humanized antibodies prepared in the present application to recognize the cynomolgus monkey CD73 molecule on the cell membrane, CHO-K1 cells capable of stably expressing monkey full-length CD73 were constructed. The cells were seeded in a 96-well plate at a density of 2×10⁶ cells/mL, with 100 μL per well. The plate was washed three times with a PBS buffer, and the supernatant was discarded. The antibodies diluted in a gradient with a PBS buffer were added, and the mixture was incubated at 4° C. for 1 h. The cells were washed 3 times with a PBS buffer, followed by labeling with Alexa Fluor 488-labeled goat anti-human IgG antibody at 4° C. in the dark for 50 min. The cells were then washed 3 times with a PBS buffer, and the fluorescence intensity of the cells was read by a flow cytometer.
As shown in the results in FIG. 5 and Table 10, the prepared humanized antibodies could bind to the monkey CD73 protein expressed on cells in a dose-dependent manner.

Assay [3] addresses T3, recombinant human CD73 protein (human, UniProt P21589 27-547).
T3 construct: Bought soluble protein; The background says that CD73 forms a homodimer; also called soluble CD73; free CD73 protein
T3 sequence (looked up): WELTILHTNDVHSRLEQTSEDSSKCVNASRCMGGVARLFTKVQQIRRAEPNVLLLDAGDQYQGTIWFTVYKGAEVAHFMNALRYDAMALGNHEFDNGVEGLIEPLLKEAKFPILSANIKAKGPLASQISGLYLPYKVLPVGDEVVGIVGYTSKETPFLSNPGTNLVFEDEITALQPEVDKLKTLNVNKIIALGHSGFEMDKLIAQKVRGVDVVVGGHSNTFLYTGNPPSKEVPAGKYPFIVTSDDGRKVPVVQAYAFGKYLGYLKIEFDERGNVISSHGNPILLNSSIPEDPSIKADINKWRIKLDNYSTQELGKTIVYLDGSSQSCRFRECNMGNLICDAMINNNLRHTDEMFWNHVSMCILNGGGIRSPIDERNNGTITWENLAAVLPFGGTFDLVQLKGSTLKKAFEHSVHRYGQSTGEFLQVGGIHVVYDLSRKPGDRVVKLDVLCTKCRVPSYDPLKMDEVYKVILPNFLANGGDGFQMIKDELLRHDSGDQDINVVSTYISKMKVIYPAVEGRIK
The assay can be described thus: BLI (Fortebio), human CD73 on HIS1K biosensors, antibody as analyte. As for the experimental part:
The humanized antibody VH and VL were separately constructed into eukaryotic expression vectors containing the hIgG1-kappa constant region with L234A, L235A, P329A and P331S mutations (abbreviated as hIgG1 in the present application). The affinity of all humanized antibodies was assayed in this example. Human CD73 protein was immobilized onto HIS1K biosensors to achieve a binding response threshold of 0.3 nm. After a 120-second baseline step, the sensors were separately immersed in anti-CD73 antibody analytes diluted in a gradient with a 0.02% PBST buffer (each antibody was diluted in a 2-fold gradient with an initial concentration of 25 nM, resulting in 7 concentration gradients). The times for the ligand-analyte binding and dissociation were 120 s and 300 s, respectively. The data of the antigen-antibody affinity were calculated by regression according to the binding curves using an analysis software.

B1: Hab1F2F9.15 (antibody, human IgG1, kappa, L234A L235A, V domains shown)
VH: QVQLVQSGAEVKKPGASVKVSCKASGYTFTSYWMHWVRQAPGQRLEWMGNINPSNGGTKYSQKFQGRVTITVDTSASTAYMELSSLRSEDTAVYYCARRDYGSPSYWGQGTTVTVSS
VL: DIQMTQSPSSLSASVGDRVTITCKASQDINSYLTWFQQKPGKAPKSLIYRTNILLDGVPSRFSGSGSGTDYTLTISSLQPEDFATYYCLQYHEFPVTFGGGTKLEIKR
notes: Humanized 1F2F9; also called Huab1F2F9.15; HuablF2F9.15
One may read the EC50 as the midpoint of the concentration-response curve. What is called Kd is the concentration at which binding is half-saturated. As a reminder, the koff is the rate constant with which the complex falls apart. As usually defined, the kon is the rate constant with which the complex forms. Consider B1, for which, in assay [1], the “Cellular enzymatic activity inhibition IC50” value stood at 69 pM. This molecule had a concentration for a half-maximal effect (EC50) in assay [2] of 1510 pM. In assay [3], the Kd turned out to be 779 pM, the dissociation rate constant (koff) came to 0.0016 s⁻¹ and the on-rate (kon) amounted to 2.06e+06 M⁻¹ s⁻¹.

B2: Hab7C3C2.5 (antibody, human IgG1, kappa, L234A L235A, V domains shown)
VH: QVQLVQSGAEVKKPGASVKVSCKASGYTFTSYDINWVRQATGQGLEWIGWIYPRDGFTKYNEKFKGRVTLTVNTSISTAYMELSSLRSEDTAVYYCARKEGYRGDWYFDVWGQGTTVTVSS
VL: DIQMTQSPSSLSASVGDRVTITCRASGNVHNYLAWYQQKPGKAPKLLLYNAKTLASGVPSRFSGSGSGTDYTLTISSLQPEDFATYYCQHFWSTPWTFGGGTELEIKR
notes: Humanized 7C3C2; also called Hab7C3C.5
In the case of B2, the “Cellular enzymatic activity inhibition IC50” value in assay [1] worked out at 27 pM. Also, it took 11300 pM to reach a half-maximal effect in assay [2] (EC50). Moreover, in assay [3], the Kd was 765 pM, the off-rate constant (koff) worked out at 0.00272 s⁻¹ and the kon came to 3.56e+06 M⁻¹ s⁻¹.
